Laboratory results reported in patent US20170204182A1.

B1: CD81K04 HC GG-05-hVH_1_18 / LC JA_GG-10-hVK_4_1 (antibody, V domains shown)
VH: QVQLVQSGAEVKKPGASVKVSCKASGYTFSSSWMNWVRQAPGQGLEWMGRIYSGDGDAIYAQKLQGRVTMTTDTSTSTAYMELRSLRSDDTAVYYCAREGKTGDLLLRSWGQGTLVTVSS
VL: DIVMTQSPDSLAVSLGERATINCRASKSVSTSIYSYMHWYQQKPGQPPKLLIKYASYLESGVPDRFSGSGSGTDFTLTISSLQAEDVAVYYCEHSREFPFTFGQGTKLEIK
B2: CD81K04 HC JA_GG-14-hVH_1_69 / LC GG-04-hVK_4_1 (antibody, V domains shown)
VH: QVQLVQSGAEVKKPGSSVKVSCKASGYTFSSSWMNWVRQAPGQGLEWMGRIYSGDGDAIYNGKFKGKATITADESTSTAYMELSSLRSEDTAVYYCAREGKTGDLLLRSWGQGTLVTVSS
VL: DIVMTQSPDSLAVSLGERATINCKSSKSVSTSIYSYLAWYQQKPGQPPKLLIYYASTRESGVPDRFSGSGSGTDFTLTISSLQAEDVAVYYCQHSREFPYTFGQGTKLEIK
B3: CD81K04 HC JA_GG-14-hVH_1_69 / LC JA_GG-07-hVK_7_3 (antibody, V domains shown)
VH: QVQLVQSGAEVKKPGSSVKVSCKASGYTFSSSWMNWVRQAPGQGLEWMGRIYSGDGDAIYNGKFKGKATITADESTSTAYMELSSLRSEDTAVYYCAREGKTGDLLLRSWGQGTLVTVSS
VL: DIVLTQSPASLAVSPGQRATITCRASKSVSTSIYSYMHWYQQKPGQPPKLLIKYASNKDTGVPARFSGSGSGTDFTLTINPVEANDAANYYCLHSREFPYTFGQGTKLEIK
B4: CD81K13 HC 04-hVH_1_69 / LC 05-hVK_1_39 (antibody, V domains shown)
VH: EVQLVESGGGLVQPGRSLRLSCTASGFNFKDSYLHWVRQAPGQGLEWMGRIDTGNGNVKFDPKFQGRVTITADESTSTAYMELSSLRSEDTAVYYCVPYGYGFHSWGQGTLVTVSS
VL: DIQMTQSPSSLSASVGDRVTITCRASENIYRTLAWYQQKPGKAPKLLIYAATTLASGVPSRFSGSGSGTDFTLTISSLQPEDFATYYCQHFWGTPWTFGQGTKVEIK
B5: CD81K13 HC 04-hVH_1_69 / LC 5b-hVK_1_39 (antibody, V domains shown)
VH: EVQLVESGGGLVQPGRSLRLSCTASGFNFKDSYLHWVRQAPGQGLEWMGRIDTGNGNVKFDPKFQGRVTITADESTSTAYMELSSLRSEDTAVYYCVPYGYGFHSWGQGTLVTVSS
VL: DIQMTQSPSSLSASVGDRVTITCRASENIYRTLAWYQQKPGKAPKLLIYGATTLADGVPSRFSGSGSGTDFTLTISSLQPEDFATYYCQHFWGTPWTFGQGTKVEIK
B6: CD81K13 HC 04-hVH_1_69 / LC 07-hVK_1_27 (antibody, V domains shown)
VH: EVQLVESGGGLVQPGRSLRLSCTASGFNFKDSYLHWVRQAPGQGLEWMGRIDTGNGNVKFDPKFQGRVTITADESTSTAYMELSSLRSEDTAVYYCVPYGYGFHSWGQGTLVTVSS
VL: DIQMTQSPSSLSASVGDRVTITCRASENIYRTLAWYQQKPGKVPKLLIYAATTLASGVPSRFSGSGSGTDFTLTISSLQPEDVGTYYCQKFWGTPWTFGQGTKVEIK
B7: CD81K13 HC 04-hVH_1_69 / LC 06-hVK_1_39 (antibody, V domains shown)
VH: EVQLVESGGGLVQPGRSLRLSCTASGFNFKDSYLHWVRQAPGQGLEWMGRIDTGNGNVKFDPKFQGRVTITADESTSTAYMELSSLRSEDTAVYYCVPYGYGFHSWGQGTLVTVSS
VL: DIQMTQSPSSLSASVGDRVTITCRASENIYRTLAWYQQKPGKAPKLLIYAATTLASGVPSRFSGSGSGTDFTLTISSLQPEDFGTYYCQHFWGTPWTFGQGTKVEIK
B8: CD81K13 HC 04-hVH_1_69 / LC 5b-hVK_1_39-GA (antibody, V domains shown)
VH: EVQLVESGGGLVQPGRSLRLSCTASGFNFKDSYLHWVRQAPGQGLEWMGRIDTGNGNVKFDPKFQGRVTITADESTSTAYMELSSLRSEDTAVYYCVPYGYGFHSWGQGTLVTVSS
VL: DIQMTQSPSSLSASVGDRVTITCRASENIYRTLAWYQQKPGKAPKLLIYGATTLADGVPSRFSGSGSGTDFTLTISSLQPEDFATYYCQHFWGTPWTFGQGTKVEIK

Molecular target: T1, CD81 (UniProt P60033)
T1 sequence (looked up): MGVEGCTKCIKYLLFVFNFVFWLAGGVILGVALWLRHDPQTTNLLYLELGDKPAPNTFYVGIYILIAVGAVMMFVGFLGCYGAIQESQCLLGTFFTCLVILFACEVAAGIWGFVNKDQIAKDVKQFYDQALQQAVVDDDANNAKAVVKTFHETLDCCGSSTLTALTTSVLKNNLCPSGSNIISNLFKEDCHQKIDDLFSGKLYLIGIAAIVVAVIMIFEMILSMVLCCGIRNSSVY
Assay: cell ELISA

Compared with B1, B2 is lower in ELISA absorbance: 0.841 for the first, 0.107 for the second.

Going from B3 to B4, the ELISA absorbance rises from 0.107 to 0.776.

First: B5
Second: B6
The ELISA absorbance of the first is higher: 0.428 for the first, 0.085 for the second.

Compared with B7, B8 is higher in ELISA absorbance: 0.386 for the first, 0.403 for the second.
